Experimental data as given in patent US12064469B2, “Stable peptide compositions” (TearSolutions, Inc., priority 2017, dated 2024).
“Also recorded” adds a separate entry of the source.

Assay: Comparative Lacripep stability in PBS vs citrate buffer at 60° C. by MALDI TOF mass spectrometry
Assay type: physicochemical
Conditions: 2 weeks
Procedure: FIGS. 1A and 1B illustrate the stability of Lacripep™ (SEQ ID NO: 1) (0.001%) in phosphate buffered saline (PBS), pH 4.5 and 7.0. The Lacripep™ solutions were analyzed by MALDI TOF mass spectrometry at time 0 (FIG. 1A) and after two weeks (FIG. 1B) at 60° C.
The Lacripep™ solutions were analyzed by MALDI TOF mass spectrometry at time 0 (FIG. 2A) and after two weeks (FIG. 2B) at 60° C.
Lacripep™ (SEQ ID NO. 1) stability was assessed in PBS at pH 4.5 and 7.0 (FIG. 1) and citrate buffer at pH 6.0 and 6.5 (FIG. 2). The initial concentration of Lacripep™ was 0.001%, and each trial was run at 60° C. The stability was assessed using MALDI TOF mass spectrometry at the initiation of the experiment (week 0, FIGS. 1A and 2A) and after two weeks (week 2, FIGS. 1B and 2B).

## Ac-Lys-Gln-Phe-Ile-Glu-Asn-Gly-Ser-Glu-Phe-Ala-Gln-Lys-Leu-Leu-Lys-Lys-Phe-Ser-NH2 (Ac-KQFIENGSEFAQKLLKKFS-NH2; listed as Homo sapiens) [Lacripep™]
PBS pH 4.5, 0.001% Lacripep
  stability (Lacripep peak, MALDI TOF): significant degradation; also recorded: a degradation product becomes apparent; also recorded: An additional degradation product is seen
PBS pH 7.0, 0.001% Lacripep
  stability (Lacripep peak, MALDI TOF): significant degradation; also recorded: a degradation product becomes apparent
Citrate buffer pH 6.0, 0.001% Lacripep
  stability (Lacripep peak, MALDI TOF): no change in the intensity of the Lacripep™ peak
Citrate buffer pH 6.5, 0.001% Lacripep
  stability (Lacripep peak, MALDI TOF): no change in the intensity of the Lacripep™ peak
